Test results from paper PMC3323551.

Columns and labels:
[1] = target: T1, His-OpaR (Vibrio parahaemolyticus RIMD 2210633) (UniProt Q79YV4); assay: DNase I footprinting; settings: 1 mM MgCl2, 0.5 mM EDTA, 0.5 mM DTT, 50 mM NaCl, 10 mM Tris-HCl pH 7.5, 0.05 mg/ml poly(dI-dC), room temperature, 30 min; footprinting same buffer, then …
T1 sequence: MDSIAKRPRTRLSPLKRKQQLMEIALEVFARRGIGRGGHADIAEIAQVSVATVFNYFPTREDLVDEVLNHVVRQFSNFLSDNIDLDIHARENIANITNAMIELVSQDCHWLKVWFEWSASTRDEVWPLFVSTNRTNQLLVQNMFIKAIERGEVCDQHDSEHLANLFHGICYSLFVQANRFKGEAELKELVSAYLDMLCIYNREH

[2] = target: T1, His-OpaR (Vibrio parahaemolyticus RIMD 2210633); assay: EMSA; settings: 1 mM MgCl2, 0.5 mM EDTA, 0.5 mM DTT, 50 mM NaCl, 10 mM Tris-HCl pH 7.5, 0.05 mg/ml poly(dI-dC), room temperature, 30 min; footprinting same buffer, then …

**Q.** “AACCGTGAAATCCATTTACTGAGGTATTTTTCCTCATTAATTAGCAGTATAGGGTAAAAATATGAAAGCTAATGGATAATCATAAAGTAGTAGTTGGTTTTTTGCTGAGAAAGTGATTAGTAGCAATGTAACAAGTGGCATATTTGCATGCTATTGCATTTTGCAAATGCAATTTGCGAAAGTGCTGGTTAATAATGCGTCG (double strand) [qrr4 promoter fragment]” was tested. Which binding [1] did it give?
**A.** The binding was “binds”.

**Q.** And the binding [2]?
**A.** The binding was “binds”.

**Q.** What does the source list for “AGTGGTTGCTTATGAATCAATCCCAGGAAAAGGCGAGAACAGCGAACCTTCAACTCGTTAACATTTTATTTTCATTTACATTTTGACTAACTCAATTGTTAATAAATTACCTAAATTGCATTTTGAAATTGCAGAATGCAATTAAGTTTTGTTTTTTGCAAAAATTTATATAGGCAATATCAGTTTATATGAGATCTTGTGCCCAAAAATAAAGCTTTGAAAATTGGCATGATTAATGCATAATACTTCTCGACC (double strand) [qrr2 promoter fragment]”?
**A.** binding [1]: binds; binding [2]: binds

**Q.** Which results are given for “GGATAAGTTCAAATTGGATCCAGCCTTAGCAGGCTCGGTTATTCTAACGACAGTGACAGATGTGGTTGGTTTTTTCGCCTTTTTGGGAACGGCGAGTTTAGTCATGCTCTAAAAAGTCCACTGTTTATTAATCAATCATTAGCATAATAGAGACAAATTGCATAACGCACTTGCAAATTGCAAAAACATTCAAAGTTTAAGCAACGTATGTCACAGAAACCAC (double strand) [qrr3 promoter fragment]”?
**A.** binding [1]: binds; binding [2]: binds

**Q.** For “AACTTCCAACCACATAATTGCGCAGCAAATAACCAGACATTTACACTACAAAAAACCCATAAAATACCAACAAATTAGAATTATTAACTACAAAATAACTCTATTGAGTATTATGTTAGTTTTTCAGGGTAATTTTGTCCTAGTATTCCACTTCATGCTTATTATTTATATACTACTTGCCTGCTGAGAGCTCATAAATCCAATCATACCTGCTCCAGCC (double strand) [aphA promoter fragment]”, which binding [1] is on record?
**A.** The binding was “binds”.

**Q.** What about the binding [2] of the same sequence?
**A.** Its binding is “binds”.

**Q.** How did the binding [1] turn out when “AGTGGGTTGAAAGTCACATCCTTTTGCGGAAAATTCTTGGGAGCGCTGCCAAATTTTCGAAAGTTTACAGCAAAACTTATCAATAATAATGACATTACTGTCTATAAATTATCCATCAGATGTTGACCTTGTGCATATGCACCATTACACTCATCACTGCTTAAAGCAATTATTAAAATAATCAATTAGGGGGTTACCCCCAACAACAACTCAAATGGCAAGGAAAATGGATATGGACTCAATTGCAAAGAGACCTAGAACTAGGC (double strand) [opaR promoter footprinting fragment]” was run?
**A.** The binding was “binds”.
